Here are results for 80 sequences from the supplement of paper PMC10724198.

± gives the standard deviation of the averaged measurements.
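Further: PSI is a weighted mean of sequencing reads over stability bins, variants kept only with over 10 reads, mCherry proximal and sfGFP distal, peptide attached via GGGS linker.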

The subject of this data set is Saccharomyces cerevisiae. The data set can be described thus: protein stability index of tFT-peptide fusion (C-terminal peptide) (PSI (0-1 scale)); higher = more stable (slower turnover). The conditions noted are these: genetic background: wild type; temperature: 30 C.
TLQRARTGSTPK showed a protein stability index of 0.684 ± 0.055.

TLRVNAMFVEAM gave a protein stability index of 0.63 ± 0.014.

In turn, TLSSSPRPLPVP returned a protein stability index of 0.692 ± 0.051.

The sequence TLTVCVNQGMTM had a protein stability index of 0.668 ± 0.024.

Regarding TLTVRASLHLEP, the protein stability index is 0.636 ± 0.025.

For TLVPPPSPPPSP, the protein stability index is 0.636 ± 0.065.

TLWLSGGGGMVI yielded a protein stability index of 0.731 ± 0.04.

Sequence TNATENKNRHPN yielded a protein stability index of 0.741 ± 0.068.

The sequence TNGHIVRLGRRV registered a protein stability index of 0.63 ± 0.011.

Consider TNKKQIEPSKIR, for which the protein stability index is 0.763 ± 0.086.

TNKNNKKKKEKI registered a protein stability index of 0.743 ± 0.049.

Turning to TNQRKKTVAGEK, the protein stability index was found to be 0.672 ± 0.025.

In turn, TNSQTKKKINKI displayed a protein stability index of 0.661 ± 0.038.

TNYIPRQSKKGG returned a protein stability index of 0.71 ± 0.022.

Consider TNYKIKDDRLHR, for which the protein stability index stood at 0.699 ± 0.014.

TPCTFPPLIRSP had a protein stability index of 0.672 ± 0.039.

Take TPFLPLPSRPRR: the protein stability index worked out at 0.726 ± 0.0078.

For the sequence TPHPPAAPPPPL, the protein stability index turned out to be 0.766 ± 0.082.

For TPLGLSVSSPPT, the protein stability index was found to be 0.661 ± 0.14.

Consider TPLPLRFRCPYS, for which the protein stability index worked out at 0.639 ± 0.04.

For TPLPPSALPLPL, the protein stability index was 0.724 ± 0.066.

As to TPPSPLPPSPPR, the protein stability index was 0.728 ± 0.058.

TPQTTQIKNEKH showed a protein stability index of 0.789 ± 0.14.

Take TPRAALVVSPLV: the protein stability index was 0.7484 ± 0.0018.

In turn, TPRYALVRHHPR came in with a protein stability index of 0.695 ± 0.098.

TPSCPALRGDAE had a protein stability index of 0.661 ± 0.016.

In turn, TPSLLSPPLSLA returned a protein stability index of 0.7036 ± 0.0027.

The sequence TPSNTRPTLHIP returned a protein stability index of 0.6404 ± 0.0011.

The sequence TPSSLLLISPPS yielded a protein stability index of 0.703 ± 0.083.

For TQLNATVSWTEK, the protein stability index is 0.665 ± 0.014.

As for TQSAPGIPGAGE, the protein stability index is 0.65 ± 0.025.

For TQVGTLANASGP, the protein stability index was 0.671 ± 0.046.

TRAGRGGCASQD had a protein stability index of 0.701 ± 0.028.

Sequence TRCGGRWGEGWR registered a protein stability index of 0.72 ± 0.028.

The sequence TRCRLRETISRR showed a protein stability index of 0.651 ± 0.067.

Regarding TRCSIPSSLSLM, the protein stability index is 0.677 ± 0.016.

For TRGTRGWGSVVG, the protein stability index came out at 0.735 ± 0.018.

Consider TRLKKTEKTKER, for which the protein stability index worked out at 0.739 ± 0.025.

On to TRLSRGTRVEYR, for which the protein stability index amounted to 0.651 ± 0.025.

For TRLTSATHGVCC, the protein stability index came out at 0.6331 ± 0.0053.

On to TRRAISPEGRWL, for which the protein stability index was 0.645 ± 0.014.

Sequence TRRGDRVGVGSA yielded a protein stability index of 0.589 ± 0.072.

The sequence TRYKSFWSLASI yielded a protein stability index of 0.703 ± 0.064.

The sequence TSASLLLSFAVP showed a protein stability index of 0.6768 ± 0.0022.

For TSGEIESTSKKK, the protein stability index amounted to 0.689 ± 0.055.

Take TSGHSCGRGLLD: the protein stability index came out at 0.64 ± 0.012.

Consider TSGLSSAGSRSL, for which the protein stability index came out at 0.647 ± 0.044.

TSGPVSCLCECL yielded a protein stability index of 0.598 ± 0.029.

Sequence TSKVEVDKGKLE showed a protein stability index of 0.723 ± 0.051.

Regarding TSLKGHFGIRLW, the protein stability index was determined as 0.6763 ± 0.0021.

TSMRRWSGRYGG registered a protein stability index of 0.743 ± 0.075.

In turn, TSPLPTLLNDPP showed a protein stability index of 0.523 ± 0.0081.

Turning to TSSWGGLVASLR, the protein stability index stood at 0.74 ± 0.04.

TSSYFVLFLTSP returned a protein stability index of 0.635 ± 0.087.

Sequence TSVSLYWDSNLC registered a protein stability index of 0.751 ± 0.033.

In turn, TTGGRGSRVGGR had a protein stability index of 0.6975 ± 0.0024.

Take TTQPQVGHHRTS: the protein stability index turned out to be 0.715 ± 0.021.

In turn, TTRYKKQNRRKE registered a protein stability index of 0.74 ± 0.24.

The sequence TTSRADKEPFRL displayed a protein stability index of 0.675 ± 0.027.

In turn, TTYYTKPPRPKR yielded a protein stability index of 0.69 ± 0.035.

Consider TVACILPLAQSL, for which the protein stability index was found to be 0.706 ± 0.075.

On to TVERRYTGDWGG, for which the protein stability index was found to be 0.726 ± 0.032.

For the sequence TVFDPLGLPALL, the protein stability index turned out to be 0.617 ± 0.04.

Regarding TVGGAMSCLGWL, the protein stability index was determined as 0.714 ± 0.011.

Turning to TVSEQWKLLGER, the protein stability index was determined as 0.736 ± 0.051.

The sequence TWMRIRLFRFIP came in with a protein stability index of 0.5744 ± 0.0011.

As for TWVGPIRISNQQ, the protein stability index came out at 0.639 ± 0.01.

In the case of TYIVVAPTLARL, the protein stability index amounted to 0.67 ± 0.095.

With TYSERADLCAQL, the protein stability index is 0.678 ± 0.016.

In turn, TYTELSFKNCVE had a protein stability index of 0.713 ± 0.042.

The sequence VAASGEVVPLMA registered a protein stability index of 0.604 ± 0.046.

VACCKIRSGKSH yielded a protein stability index of 0.687 ± 0.056.

With VAGGTCGGRACC, the protein stability index amounted to 0.694 ± 0.099.

Turning to VALLRDSCLGVV, the protein stability index came out at 0.671 ± 0.018.

The sequence VARGVGGGVWRS registered a protein stability index of 0.704 ± 0.015.

On to VASVWGVGFVAS, for which the protein stability index is 0.694 ± 0.058.

In the case of VAVRGGSGDWGR, the protein stability index was 0.713 ± 0.023.

As for VAVVSATVGASG, the protein stability index stood at 0.68 ± 0.026.

The sequence VAVWWVQCAGGV registered a protein stability index of 0.66131 ± 0.00034.

In turn, VAWRQSVDLGLL registered a protein stability index of 0.685 ± 0.047.
